In article PMC5712524, “Mechanism of early light signaling by the carboxy-terminal output module of Arabidopsis phytochrome B” (Nature Communications, 2017):

Legend:
GST-PIF3 [1] = biological target: T1, GST-PIF3 (Arabidopsis, UniProt O80536 1-524); assay: pull-down; GST pull-down: immobilized GST-PIF3 pulls down HA-tagged PHYB in the Pr form; anti-HA immunoblot; procedure as ref. 33; conditions: one partner purified
T1 construct: the construct is not described here
T1 sequence (looked up): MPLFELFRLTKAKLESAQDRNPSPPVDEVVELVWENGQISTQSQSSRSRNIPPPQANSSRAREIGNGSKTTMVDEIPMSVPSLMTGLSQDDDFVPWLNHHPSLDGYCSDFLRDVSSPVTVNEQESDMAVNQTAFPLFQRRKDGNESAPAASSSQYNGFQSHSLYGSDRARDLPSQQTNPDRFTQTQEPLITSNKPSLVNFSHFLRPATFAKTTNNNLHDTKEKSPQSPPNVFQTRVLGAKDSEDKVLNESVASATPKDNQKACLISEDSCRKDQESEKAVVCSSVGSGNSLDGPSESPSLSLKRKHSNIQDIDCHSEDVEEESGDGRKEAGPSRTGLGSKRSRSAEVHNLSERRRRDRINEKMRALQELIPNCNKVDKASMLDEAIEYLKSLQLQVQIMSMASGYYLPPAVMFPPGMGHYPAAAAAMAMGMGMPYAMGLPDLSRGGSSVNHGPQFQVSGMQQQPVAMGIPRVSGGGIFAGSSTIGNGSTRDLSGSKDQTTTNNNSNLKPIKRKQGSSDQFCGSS

GST-PIF3 [2] = biological target: T1, GST-PIF3; assay: pull-down; GST pull-down: immobilized GST-PIF3 pulls down HA-tagged PHYB as apoprotein; anti-HA immunoblot; procedure as ref. 33; conditions: one partner purified
[3] = biological target: the molecule itself; assay: co-IP; in vitro co-immunoprecipitation: HA-tagged bait and Myc-tagged prey co-expressed in TNT T7 reticulocyte lysate, anti-HA Affinity Matrix, E buffer (50 mM Tris-HCl pH 7.5, 100 mM NaCl, 1 mM EDTA, 1 mM EGTA, 1% DMSO, 2 mM DTT, 0.1% Nonidet P-40), 4 °C 2 h; anti-Myc immunoblot

B1: PHYB18-HA (PHYB D1040V), Pr or Pfr form (natural protein, Arabidopsis, UniProt P14713 1-1172, looked up)
chain: MVSGVGGSGGGRGGGRGGEEEPSSSHTPNNRRGGEQAQSSGTKSLRPRSNTESMSKAIQQYTVDARLHAVFEQSGESGKSFDYSQSLKTTTYGSSVPEQQITAYLSRIQRGGYIQPFGCMIAVDESSFRIIGYSENAREMLGIMPQSVPTLEKPEILAMGTDVRSLFTSSSSILLERAFVAREITLLNPVWIHSKNTGKPFYAILHRIDVGVVIDLEPARTEDPALSIAGAVQSQKLAVRAISQLQALPGGDIKLLCDTVVESVRDLTGYDRVMVYKFHEDEHGEVVAESKRDDLEPYIGLHYPATDIPQASRFLFKQNRVRMIVDCNATPVLVVQDDRLTQSMCLVGSTLRAPHGCHSQYMANMGSIASLAMAVIINGNEDDGSNVASGRSSMRLWGLVVCHHTSSRCIPFPLRYACEFLMQAFGLQLNMELQLALQMSEKRVLRTQTLLCDMLLRDSPAGIVTQSPSIMDLVKCDGAAFLYHGKYYPLGVAPSEVQIKDVVEWLLANHADSTGLSTDSLGDAGYPGAAALGDAVCGMAVAYITKRDFLFWFRSHTAKEIKWGGAKHHPEDKDDGQRMHPRSSFQAFLEVVKSRSQPWETAEMDAIHSLQLILRDSFKESEAAMNSKVVDGVVQPCRDMAGEQGIDELGAVAREMVRLIETATVPIFAVDAGGCINGWNAKIAELTGLSVEEAMGKSLVSDLIYKENEATVNKLLSRALRGDEEKNVEVKLKTFSPELQGKAVFVVVNACSSKDYLNNIVGVCFVGQDVTSQKIVMDKFINIQGDYKAIVHSPNPLIPPIFAADENTCCLEWNMAMEKLTGWSRSEVIGKMIVGEVFGSCCMLKGPDALTKFMIVLHNAIGGQDTDKFPFPFFDRNGKFVQALLTANKRVSLEGKVIGAFCFLQIPSPELQQALAVQRRQDTECFTKAKELAYICQVIKNPLSGMRFANSLLEATDLNEDQKQLLETSVSCEKQISRIVGDMDLESIEDGSFVLKREEFFLGSVINAIVSQAMFLLRDRGLQLIRDIPEEIKSIEVFGVQIRIQQLLAEFLLSIIRYAPSQEWVEIHLSQLSKQMADGFAAIRTEFRMACPGEGLPPELVRDMFHSSRWTSPEGLGLSVCRKILKLMNGEVQYIRESERSYFLIILELPVPRKRPLSTASGSGDMMLMMPY
modifications: Pr or Pfr form (chromophore used not named for this experiment)
notes: Same chain as m21, with chromophore; not shown: HA, C-terminal, kept
- interaction relative to that of PHYB-HA (GST-PIF3 [1]): ~0.33 fraction of wild type

B2: PHYB18-HA (PHYB D1040V), apoprotein (natural protein, Arabidopsis, UniProt P14713 1-1172, looked up)
chain: B1 chain
notes: not shown: HA, C-terminal, kept
- interaction relative to that of PHYB-HA (GST-PIF3 [2]): ~0.33 fraction of wild type

B3: full-length PHYB18 (PHYB D1040V), N-terminal HA- or Myc-tagged (natural protein, Arabidopsis, UniProt P14713 1-1172, looked up)
chain: B1 chain
notes: Two differently tagged copies: the bait copy has the HA tag, the prey copy the Myc tag (each copy has one tag only); also called HA-PHYB18; Myc-PHYB18; source: in vitro translated (TNT T7 Coupled Reticulocyte Lysate System), co-expressed; not shown: HA, N-terminal, kept; Myc, N-terminal, kept
- fold reduction of the interaction against wild-type PHYB [3]: 5 fold
